Our source for the EC50 values is patent publication US20230312654A1.

The EC50 is the concentration at which the effect is half-maximal.

The target in experiment [1] is UFV180131 (influenza B virus B/Brisbane/60/08) (UniProt P22092).
The target of experiment [2] is UFV180251 (influenza B virus B/Brisbane/60/08) (UniProt P22092).
The target in experiment [3] is UFV180284 (influenza B virus B/Brisbane/60/08) (UniProt P22092).
The target in experiment [4] is UFV180846 (influenza B virus B/Brisbane/60/08) (UniProt P22092).
Experiment [5] deals with UFV180137 (influenza B virus B/Brisbane/60/08) (UniProt P22092).

In the case of monoclonal antibody CR9114, the half-maximal effective concentration (EC50) in experiment [1] was less than 2.6 nM; in experiment [2], less than 2.6 nM; in experiment [3], less than 2.6 nM; in experiment [4] it was less than 4.6 nM; in experiment [5], less than 2.6 nM.
On to monoclonal antibody CR8071, for which, in experiment [4], the EC50 was less than 4.6 nM.
